The record followed here is paper PMC5385945 (Molecular Biology of the Cell, 2017).

This experiment addresses T1, Qc-SNARE Vam7 (wild type, naturally soluble) (S. cerevisiae, UniProt P32912 1-316).
T1 sequence (looked up): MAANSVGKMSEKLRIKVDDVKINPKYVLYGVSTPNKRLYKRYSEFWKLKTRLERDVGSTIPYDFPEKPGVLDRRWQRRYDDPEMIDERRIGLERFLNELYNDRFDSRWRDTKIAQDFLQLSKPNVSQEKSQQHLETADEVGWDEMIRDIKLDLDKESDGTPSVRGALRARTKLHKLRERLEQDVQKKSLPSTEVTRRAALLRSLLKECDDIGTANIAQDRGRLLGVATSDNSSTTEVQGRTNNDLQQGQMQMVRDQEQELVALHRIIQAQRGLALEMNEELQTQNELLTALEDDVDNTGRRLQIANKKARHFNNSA
Kind of experiment: co-flotation with proteoliposomes.

B1: Rab GTPase Ypt7, GTP-loaded, bound to proteoliposomes (natural protein, S. cerevisiae, UniProt P32939 1-208, looked up)
chain: MSSRKKNILKVIILGDSGVGKTSLMHRYVNDKYSQQYKATIGADFLTKEVTVDGDKVATMQVWDTAGQERFQSLGVAFYRGADCCVLVYDVTNASSFENIKSWRDEFLVHANVNSPETFPFVILGNKIDAEESKKIVSEKSAQELAKSLGDIPLFLTSAKNAINVDTAFEEIARSALQQNQADTEAFEDDYNDAINIRLDGENNSCSC
With B1, the binding result is on record as “binds”.
